Results from US20050221426A1.
Values belong to the molecule of their own block, whether it stands above or below them.

Key:
Assay in all cases: cell-based or functional assay
Melanocortin 1 receptor = Melanocortin 1 receptor (UniProt Q01726)
GLP1R = GLP1R (UniProt P43220)
[1] = molecular target: Vasoactive Intestinal Peptide 1 receptor (UniProt P32241)
Melanocortin 5 receptor = Melanocortin 5 receptor (UniProt P33032)
CRHR1 = CRHR1 (UniProt P34998)
Chain of CRHR1 (P34998 24-415 limits assumed): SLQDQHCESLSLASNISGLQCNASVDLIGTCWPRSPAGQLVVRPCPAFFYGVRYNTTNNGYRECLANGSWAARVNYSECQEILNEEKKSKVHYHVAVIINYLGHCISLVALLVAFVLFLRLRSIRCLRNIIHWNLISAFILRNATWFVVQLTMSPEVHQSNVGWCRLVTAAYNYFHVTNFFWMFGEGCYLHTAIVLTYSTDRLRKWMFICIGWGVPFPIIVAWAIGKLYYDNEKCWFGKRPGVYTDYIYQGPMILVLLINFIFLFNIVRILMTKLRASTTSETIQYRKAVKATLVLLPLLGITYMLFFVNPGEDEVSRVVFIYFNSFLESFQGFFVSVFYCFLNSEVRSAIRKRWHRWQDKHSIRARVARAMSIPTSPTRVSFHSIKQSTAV

Chain of Vasoactive Intestinal Peptide 1 receptor (P32241 31-457): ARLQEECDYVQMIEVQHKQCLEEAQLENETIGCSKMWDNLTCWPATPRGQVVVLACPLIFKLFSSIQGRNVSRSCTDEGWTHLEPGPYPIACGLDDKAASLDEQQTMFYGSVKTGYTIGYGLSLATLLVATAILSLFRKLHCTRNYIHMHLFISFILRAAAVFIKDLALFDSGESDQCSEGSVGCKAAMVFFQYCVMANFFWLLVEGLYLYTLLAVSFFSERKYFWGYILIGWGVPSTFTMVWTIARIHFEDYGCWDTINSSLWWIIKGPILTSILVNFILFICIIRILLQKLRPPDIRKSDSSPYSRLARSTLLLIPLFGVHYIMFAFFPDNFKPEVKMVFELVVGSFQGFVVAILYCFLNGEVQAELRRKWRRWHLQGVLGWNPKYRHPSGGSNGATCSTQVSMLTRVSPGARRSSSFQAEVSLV
Chain of Melanocortin 1 receptor (Q01726 whole entry): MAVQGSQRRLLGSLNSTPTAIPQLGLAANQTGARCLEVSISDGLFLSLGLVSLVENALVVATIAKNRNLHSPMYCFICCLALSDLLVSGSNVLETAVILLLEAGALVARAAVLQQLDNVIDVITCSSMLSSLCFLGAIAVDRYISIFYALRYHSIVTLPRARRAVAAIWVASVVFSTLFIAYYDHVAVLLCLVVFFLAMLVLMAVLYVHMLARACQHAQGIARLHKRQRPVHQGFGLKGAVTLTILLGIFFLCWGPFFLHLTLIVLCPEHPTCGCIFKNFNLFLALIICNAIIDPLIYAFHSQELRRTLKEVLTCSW
Chain of Melanocortin 5 receptor (P33032 whole entry): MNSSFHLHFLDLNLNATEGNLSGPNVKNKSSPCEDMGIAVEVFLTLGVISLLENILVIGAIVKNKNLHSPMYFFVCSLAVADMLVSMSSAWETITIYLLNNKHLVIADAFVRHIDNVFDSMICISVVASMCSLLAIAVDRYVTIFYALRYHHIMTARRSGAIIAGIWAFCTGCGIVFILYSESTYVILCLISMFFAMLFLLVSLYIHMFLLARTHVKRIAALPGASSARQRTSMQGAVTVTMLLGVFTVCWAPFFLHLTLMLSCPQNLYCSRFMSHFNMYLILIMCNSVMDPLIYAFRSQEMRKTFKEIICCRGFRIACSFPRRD
Chain of GLP1R (P43220 24-463 limits assumed): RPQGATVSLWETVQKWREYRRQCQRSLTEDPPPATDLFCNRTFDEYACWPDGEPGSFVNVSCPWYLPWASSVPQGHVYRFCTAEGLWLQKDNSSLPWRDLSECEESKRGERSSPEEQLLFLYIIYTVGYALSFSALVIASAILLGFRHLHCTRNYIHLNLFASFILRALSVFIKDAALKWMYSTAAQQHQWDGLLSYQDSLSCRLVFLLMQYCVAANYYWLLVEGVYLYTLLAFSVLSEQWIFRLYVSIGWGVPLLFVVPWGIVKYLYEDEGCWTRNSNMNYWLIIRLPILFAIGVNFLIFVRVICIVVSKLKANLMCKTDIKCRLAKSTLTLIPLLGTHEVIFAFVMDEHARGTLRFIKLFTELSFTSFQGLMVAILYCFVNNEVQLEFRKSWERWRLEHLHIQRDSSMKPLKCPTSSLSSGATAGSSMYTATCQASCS

Molecule: GLP (peptide)
EC50 of cell response (CNG channel voltage dye assay; NY & H30602) (GLP1R): 0.003 nM

Molecule: [Nle4-D-Phe7]α-MSH (from UniProt P01189 138-150) (peptide)
EC50 of cell response (CNG channel voltage dye assay; MDC dye) (Melanocortin 5 receptor): 0.0029 nM | EC50 of cell response (CNG channel voltage dye assay; NR & H30602) (Melanocortin 5 receptor): 0.0013 nM | EC50 of cell response (CNG channel voltage dye assay; NY & H30602) (Melanocortin 5 receptor): 950 nM | Fmax/Fb maximal response (CNG channel voltage dye assay; MDC dye) (Melanocortin 5 receptor): 3.6 | Fmax/Fb maximal response (CNG channel voltage dye assay; NR & H30602) (Melanocortin 5 receptor): 3.2 | Fmax/Fb maximal response (CNG channel voltage dye assay; NY & H30602) (Melanocortin 5 receptor): 3.4

Continued, values first:

EC50 of cell response (CNG channel voltage dye assay; MDC dye) (Melanocortin 1 receptor): 820 nM | EC50 of cell response (CNG channel voltage dye assay; TB & H30602) (Melanocortin 1 receptor): 770 nM | Fmax/Fb maximal response (CNG channel voltage dye assay; MDC dye) (Melanocortin 1 receptor): 5 | Fmax/Fb maximal response (CNG channel voltage dye assay; TB & H30602) (Melanocortin 1 receptor): 5.1
Molecule: α-MSH (from UniProt P01189 138-150) (peptide)

EC50 of cell response (CNG channel voltage dye assay; MDC dye) [1]: 0.0024 nM | EC50 of cell response (CNG channel voltage dye assay; TB & H30602) [1]: 0.005 nM | Fmax/Fb maximal response (CNG channel voltage dye assay; MDC dye) [1]: 4.9 | Fmax/Fb maximal response (CNG channel voltage dye assay; TB & H30602) [1]: 5
Molecule: VIP (from UniProt P01282 125-152) (peptide)

EC50 of cell response (CNG channel voltage dye assay; MDC dye) (CRHR1): 0.028 nM | EC50 of cell response (CNG channel voltage dye assay; NY & H30602) (CRHR1): 0.028 nM | Fmax/Fb maximal response (CNG channel voltage dye assay; MDC dye) (CRHR1): 4.2 | Fmax/Fb maximal response (CNG channel voltage dye assay; NY & H30602) (CRHR1): 4.3
Molecule: SEEPPISLDLTFHLLREVLEMARAEQLAQQAHSNRKLMEII (peptide, UniProt P06850 154-194, looked up) [CRF]
